According to patent US20230050380A1 (CHIOME BIOSCIENCE, published 2023):

Molecular target: T1, full-length hCDCP1 with N-terminal c-Myc tag (expression vector GS01), on Ba/F3-hCDCP1 cells or … (human, UniProt Q9H5V8 30-836)
T1 construct: also called human CDCP1; hCDCP1 forced expression cells
T1 sequence: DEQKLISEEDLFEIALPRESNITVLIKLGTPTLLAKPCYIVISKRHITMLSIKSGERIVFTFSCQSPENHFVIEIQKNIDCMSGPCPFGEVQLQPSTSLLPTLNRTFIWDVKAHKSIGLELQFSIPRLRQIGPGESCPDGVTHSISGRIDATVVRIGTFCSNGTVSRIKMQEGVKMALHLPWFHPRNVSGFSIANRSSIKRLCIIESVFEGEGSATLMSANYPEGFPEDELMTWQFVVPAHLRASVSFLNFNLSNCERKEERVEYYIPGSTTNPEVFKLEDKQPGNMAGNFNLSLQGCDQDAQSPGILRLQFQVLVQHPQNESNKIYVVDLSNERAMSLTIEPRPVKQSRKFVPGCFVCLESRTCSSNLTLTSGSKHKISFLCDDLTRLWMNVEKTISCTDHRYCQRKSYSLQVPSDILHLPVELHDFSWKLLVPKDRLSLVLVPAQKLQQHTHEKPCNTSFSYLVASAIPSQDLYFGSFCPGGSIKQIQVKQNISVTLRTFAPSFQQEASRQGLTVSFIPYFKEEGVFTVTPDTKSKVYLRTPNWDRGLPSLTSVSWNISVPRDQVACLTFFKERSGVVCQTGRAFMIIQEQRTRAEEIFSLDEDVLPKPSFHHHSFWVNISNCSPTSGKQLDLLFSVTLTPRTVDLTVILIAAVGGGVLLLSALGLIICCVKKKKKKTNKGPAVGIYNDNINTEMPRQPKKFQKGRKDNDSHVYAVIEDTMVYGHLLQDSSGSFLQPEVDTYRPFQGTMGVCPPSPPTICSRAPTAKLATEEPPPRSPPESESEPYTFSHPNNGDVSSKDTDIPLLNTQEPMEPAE
Experiment: flow cytometry on Ba/F3-hCDCP1 cells

B1: mh12A041HCori/LCoriA (antibody, human IgG1, kappa, V domains shown)
VH: EVQLQESGPGILQPSQTLSLTCSFSGFSLSTSGMGVSWIRQPSGKGLEWLAHIYWDDDKRYNPSLKSRLTISKDTSSNQVFLKITSVDTADTATYYCARSGSYYGSSLDCWGQGTTLTVSS
VL: DVLMTQTPLSLPVSLGDQASISCRSSQSIVYSNGNTYLEWYLQKPGQSPKLLIYKVSNRFSGVPDRFSGSGSGTDFTLKISRVEAEDLGVYYCFQGSHVPWTFGGGTKLEIRR
notes: mouse-human chimeric antibody, human IgG1/kappa constant regions
  binding result: binds

B2: mh12A041HCv1/LCori (antibody, human IgG1, kappa, V domains shown)
VH: EVQLQESGPGILQPSQTLSLTCSFSGFSLSTSGMGVSWIRQPSGKGLEWLAHIYWDDDKRYNPSLKSRLTISKDTSSNQVFLKITSVDTADTATYYCARSGSYYGSSLDSWGQGTTLTVSS
VL: DVLMTQTPLSLPVSLGDQASISCRSSQSIVHSNGNTYLEWYLQKPGQSPKLLIYKVSNRFSGVPDRFSGSGSGTDFTLKISRVEAEDLGVYYCFQGSHVPWTFGGGTKLEIKR
notes: as for B1
  binding result: binds

B3: mh12A041HCori/LCv2 (antibody, human IgG1, kappa, V domains shown)
VH: EVQLQESGPGILQPSQTLSLTCSFSGFSLSTSGMGVSWIRQPSGKGLEWLAHIYWDDDKRYNPSLKSRLTISKDTSSNQVFLKITSVDTADTATYYCARSGSYYGSSLDCWGQGTTLTVSS
VL: DVLMTQTPLSLPVSLGDQASISCRSSQSIVHSNANTYLEWYLQKPGQSPKLLIYKVSNRFSGVPDRFSGSGSGTDFTLKISRVEAEDLGVYYCFQGSHVPWTFGGGTKLEIRR
notes: as for B1
  binding result: binds

B4: mh12A041HCv1/LCv2 (antibody, human IgG1, kappa, V domains shown)
VH: EVQLQESGPGILQPSQTLSLTCSFSGFSLSTSGMGVSWIRQPSGKGLEWLAHIYWDDDKRYNPSLKSRLTISKDTSSNQVFLKITSVDTADTATYYCARSGSYYGSSLDSWGQGTTLTVSS
VL: DVLMTQTPLSLPVSLGDQASISCRSSQSIVHSNANTYLEWYLQKPGQSPKLLIYKVSNRFSGVPDRFSGSGSGTDFTLKISRVEAEDLGVYYCFQGSHVPWTFGGGTKLEIRR
notes: as for B1
  binding result: binds

B5: mh12A041HCoriA/LCoriA (antibody, human IgG1, kappa, V domains shown)
VH: EVQLQESGPGILQPSQTLSLTCSFSGFSLSTFGMGVSWIRQPSGKGLEWLAHIYWDDDKRYNPSLKSRLTISKDTSSNQVFLKITSVDTADTATYYCARSGSYYGSSLDCWGQGTTLTVSS
VL: DVLMTQTPLSLPVSLGDQASISCRSSQSIVYSNGNTYLEWYLQKPGQSPKLLIYKVSNRFSGVPDRFSGSGSGTDFTLKISRVEAEDLGVYYCFQGSHVPWTFGGGTKLEIRR
notes: as for B1
  binding result: binds

B6: mh12A041HCv1/LCv1 (antibody, human IgG1, kappa, V domains shown)
VH: EVQLQESGPGILQPSQTLSLTCSFSGFSLSTSGMGVSWIRQPSGKGLEWLAHIYWDDDKRYNPSLKSRLTISKDTSSNQVFLKITSVDTADTATYYCARSGSYYGSSLDSWGQGTTLTVSS
VL: DVLMTQTPLSLPVSLGDQASISCRSSQSIVHSSGNTYLEWYLQKPGQSPKLLIYKVSNRFSGVPDRFSGSGSGTDFTLKISRVEAEDLGVYYCFQGSHVPWTFGGGTKLEIRR
notes: as for B1
  binding result: binds

B7: mh12A041HCoriA/LCori (antibody, human IgG1, kappa, V domains shown)
VH: EVQLQESGPGILQPSQTLSLTCSFSGFSLSTFGMGVSWIRQPSGKGLEWLAHIYWDDDKRYNPSLKSRLTISKDTSSNQVFLKITSVDTADTATYYCARSGSYYGSSLDCWGQGTTLTVSS
VL: DVLMTQTPLSLPVSLGDQASISCRSSQSIVHSNGNTYLEWYLQKPGQSPKLLIYKVSNRFSGVPDRFSGSGSGTDFTLKISRVEAEDLGVYYCFQGSHVPWTFGGGTKLEIKR
notes: as for B1
  binding result: binds

B8: mh12A041HCori/LCoriB (antibody, human IgG1, kappa, V domains shown)
VH: EVQLQESGPGILQPSQTLSLTCSFSGFSLSTSGMGVSWIRQPSGKGLEWLAHIYWDDDKRYNPSLKSRLTISKDTSSNQVFLKITSVDTADTATYYCARSGSYYGSSLDCWGQGTTLTVSS
VL: DVLMTQTPLSLPVSLGDQASISCRSSQNIVHSDGNTYLEWYLQKPGQSPKLLIYKVSNRFSGVPDRFSGSGSGTDFTLKISRVEAEDLGVYYCFQGSHVPWTFGGGTKLEIRR
notes: as for B1
  binding result: binds

B9: mh12A041HCori/LCv1 (antibody, human IgG1, kappa, V domains shown)
VH: EVQLQESGPGILQPSQTLSLTCSFSGFSLSTSGMGVSWIRQPSGKGLEWLAHIYWDDDKRYNPSLKSRLTISKDTSSNQVFLKITSVDTADTATYYCARSGSYYGSSLDCWGQGTTLTVSS
VL: DVLMTQTPLSLPVSLGDQASISCRSSQSIVHSSGNTYLEWYLQKPGQSPKLLIYKVSNRFSGVPDRFSGSGSGTDFTLKISRVEAEDLGVYYCFQGSHVPWTFGGGTKLEIRR
notes: as for B1
  binding result: binds

B10: mh12A041HCoriA/LCoriB (antibody, human IgG1, kappa, V domains shown)
VH: EVQLQESGPGILQPSQTLSLTCSFSGFSLSTFGMGVSWIRQPSGKGLEWLAHIYWDDDKRYNPSLKSRLTISKDTSSNQVFLKITSVDTADTATYYCARSGSYYGSSLDCWGQGTTLTVSS
VL: DVLMTQTPLSLPVSLGDQASISCRSSQNIVHSDGNTYLEWYLQKPGQSPKLLIYKVSNRFSGVPDRFSGSGSGTDFTLKISRVEAEDLGVYYCFQGSHVPWTFGGGTKLEIRR
notes: as for B1
  binding result: binds

B11: mh14A025HCv1/LCori (antibody, human IgG1, kappa, V domains shown)
VH: EVQLQESGAELVRPGALVKLSCKASGFNIKDYYMHWVKQRPEQGLEWIGWIDPESGNTIYDPKFQGKASITADTSSNTAYLQLSSLTSEDTAVYYCGGLLYAMDYWGQGTSVTVSS
VL: DIQMTQTTSSLSASLGDRVTISCRASQDISNYLNWYQQKPDGTVKLLIYFTSRLHSGVPSRFSGSGSGTDYSLTISNLEQEDIATYFCQQGNTLPRTFGGGTKLEIRR
notes: as for B1
  binding result: binds

B12: mh14A025HCv5/LCori (antibody, human IgG1, kappa, V domains shown)
VH: EVQLQESGAELVRPGALVKLSCKASGFNIKDYYMHWVKQRPEQGLEWIGWIDPENDNTIYDPKFQGKASITADTSSNTAYLQLSSLTSEDTAVYYCGGLLYAMDYWGQGTSVTVSS
VL: DIQMTQTTSSLSASLGDRVTISCRASQDISNYLNWYQQKPDGTVKLLIYFTSRLHSGVPSRFSGSGSGTDYSLTISNLEQEDIATYFCQQGNTLPRTFGGGTKLEIRR
notes: as for B1
  binding result: binds

B13: mh14A025HCv2/LCori (antibody, human IgG1, kappa, V domains shown)
VH: EVQLQESGAELVRPGALVKLSCKASGFNIKDYYMHWVKQRPEQGLEWIGWIDPENANTIYDPKFQGKASITADTSSNTAYLQLSSLTSEDTAVYYCGGLLYAMDYWGQGTSVTVSS
VL: DIQMTQTTSSLSASLGDRVTISCRASQDISNYLNWYQQKPDGTVKLLIYFTSRLHSGVPSRFSGSGSGTDYSLTISNLEQEDIATYFCQQGNTLPRTFGGGTKLEIRR
notes: as for B1
  binding result: binds

B14: mh14A025HCv7/LCori (antibody, human IgG1, kappa, V domains shown)
VH: EVQLQESGAELVRPGALVKLSCKASGFNIKDYYMHWVKQRPEQGLEWIGWIDPENENTIYDPKFQGKASITADTSSNTAYLQLSSLTSEDTAVYYCGGLLYAMDYWGQGTSVTVSS
VL: DIQMTQTTSSLSASLGDRVTISCRASQDISNYLNWYQQKPDGTVKLLIYFTSRLHSGVPSRFSGSGSGTDYSLTISNLEQEDIATYFCQQGNTLPRTFGGGTKLEIRR
notes: as for B1
  binding result: binds

B15: mh14A025HCv8/LCori (antibody, human IgG1, kappa, V domains shown)
VH: EVQLQESGAELVRPGALVKLSCKASGFNIKDYYMHWVKQRPEQGLEWIGWIDPEFGNTIYDPKFQGKASITADTSSNTAYLQLSSLTSEDTAVYYCGGLLYAMDYWGQGTSVTVSS
VL: DIQMTQTTSSLSASLGDRVTISCRASQDISNYLNWYQQKPDGTVKLLIYFTSRLHSGVPSRFSGSGSGTDYSLTISNLEQEDIATYFCQQGNTLPRTFGGGTKLEIRR
notes: as for B1
  binding result: binds
